Patent publication US20230212319A1, “NOVEL ANTIGEN BINDING DOMAINS AND SYNTHETIC ANTIGEN RECEPTORS INCORPORATING THE SAME” (University of Southern California, priority 2020, published 2023)
Positions count from the first letter of the chain named.

B1: SEQ ID NO: 22248: Herceptin mimotag tagged SAR (protein)
chain: MALPVTALLLPLALLLHAARPDIQMTQSPSSLSASVGDRVTITCKASDHINNWLAWYQQKPGQAPKLLIYGATTLETGVPSRFSGSGSGTDYTLTISSLQPEDFATYYCQQSWNTPWTFGQGTKLEIKRLEDLKNVFPPEVAVFEPSEAEISHTQKATLVCLATGFYPDHVELSWWVNGKEVHSGVCTDPQPLKEQPALNDSRYCLSSRLRVSATFWQNPRNHFRCQVQFYGLSENDEWTQDRAKPVTQIVSAEAWGRADCGFTSESYQQGVLSATILYEILLGKATLYAVLVSALVLMAMVKRKDSRGRAKRSGSGATNFSLLKQAGDVEENPGPTSATMDWIWRILFLVGAATGAHSGPQLGPYELWELSHGSGPLGIAGIFEQVQLQQPGAELVKPGASVKMSCKASGYAFSSYWINWMKQKPGQGLEWIGQIYPGDGDTNYNGKFKGRATLTADTSSSTAYMQLSSLTSEDSAVYFCARSITTVVGCAMDYWGQGTSVTVSSTRIQNPDPAVYQLRDSKSSDKSVCLFTDFDSQTNVSQSKDSDVYITDKCVLDMRSMDFKSNSAVAWSNKSDFACANAFNNSIIPEDTFFPSPESSCDVKLVEKSFETDTNLNFQNLSVIGFRILLLKVAGFNLLMTLRLWSSRAKRSGSGVKQTLNFDLLKLAGDVESNPGPSRGHMTEYKPTVRLATRDDVPRAVRTLAAAFADYPATRHTVDPDRHIERVTELQELFLTRVGLDIGKVWVADDGAAVAVWTTPESVEAGAVFAEIGPRMAELSGSRLAAQQQMEGLLAPHRPKEPAWFLATVGVSPDHQGKGLGSAVVLPGVEAAERAGVPAFLETSAPRNLPFYERLGFTVTADVEVPEGPRTWCMTRKPGA
modifications: Herceptin mimotag
B2: 22146 (protein)
chain: MALPVTALLLPLALLLHAARPACEVQLLESGGGLIQPGGSLRLSCAASGFTFSSHAMTWVRQAPGKGLEWVSAISGSGDYTHYADSVKGRFTISRDNSKNTVYLQMNSLRAEDSAVYYCAKDEDGGSLLGHRGQGTLVTVSSGTGGGGSGGGGSGGGGSEFDIQMTQSPSSLSASVGDRVTITCRASQDISNYLNWYQQKPGKAVKLLIYYTSILHSGVPSRFSGSGSGTDYTLTISSLQPEDFATYFCQQGNTLPWTFGGGTKVEIKLEGQPKANPTVTLFPPSSEELQANKATLVCLISDFYPGAVTVAWKADGSPVKAGVETTKPSKQSNNKYAASSYLSLTPEQWKSHRSYSCQVTHEGSTVEKTVAPTECSGRADCGFTSESYQQGVLSATILYEILLGKATLYAVLVSALVLMAMVKRKDSRGRAKRSGSGATNFSLLKQAGDVEENPGPTSATMDWIWRILFLVGAATGAHSGPQVQLQESGGGLAQAGGSLRLSCAASGRTFSMGWFRQAPGKEREFVAAITYSGGSPYYASSVRGRFTISRDNAKNTVYLQMNSLKPEDTAVYYCAANPTYGSDWNAENWGQGTQVTVSSGSGGGGSGGGGSGGGGSFEVQLVESGGGLVKPGGSLKLSCAASGFAFSIYDMSWVRQAPGKGLEWVAYISSGGGTTYYPDTVKGRFTISRDNAKNTLYLQMSSLRAEDTAMYYCARHSGYGSSYGVLFAYWGQGTLVTVSSTRASTKGPSVFPLAPSSKSTSGGTAALGCLVKDYFPEPVTVSWNSGALTSGVHTFPAVLQSSGLYSLSSVVTVPSSSLGTQTYICNVNHKPSNTKVDKRVEPKSCIPEDTFFPSPESSCDVKLVEKSFETDTNLNFQNLSVIGFRILLLKVAGFNLLMTLRLWSSRAKRSGSGVKQTLNFDLLKLAGDVESNPGPSRGHMTEYKPTVRLATRDDVPRAVRTLAAAFADYPATRHTVDPDRHIERVTELQELFLTRVGLDIGKVWVADDGAAVAVWTTPESVEAGAVFAEIGPRMAELSGSRLAAQQQMEGLLAPHRPKEPAWFLATVGVSPDHQGKGLGSAVVLPGVEAAERAGVPAFLETSAPRNLPFYERLGFTVTADVEVPEGPRTWCMTRKPGA
B3: 21853 (protein)
chain: MALPVTALLLPLALLLHAARPSYVLTQPPSVSVAPGQTARITCGGNNIGGKSVHWYQQPPGQAPVVVVYDDSDRPSGIPERFSGSNSGNTATLTISRVEAGDEAVYYCQVWDSSSDHVVFGGGTKLTVLLEDLKNVFPPEVAVFEPSEAEISHTQKATLVCLATGFYPDHVELSWWVNGKEVHSGVCTDPQPLKEQPALNDSRYCLSSRLRVSATFWQNPRNHFRCQVQFYGLSENDEWTQDRAKPVTQIVSAEAWGRADCGFTSESYQQGVLSATILYEILLGKATLYAVLVSALVLMAMVKRKDSRGRAKRSGSGATNFSLLKQAGDVEENPGPTSMDWIWRILFLVGAATGAHSFEQLQLQESGPGLVKPSETLSLTCTVSGGSISSSSYFWGWIRQPPGKGLEWIGSIYYSGITYYNPSLKSRVTISVDTSKNQFSLKLSSVTAADTAVYYCARHDGAVAGLFDYWGQGTLVTVSSATRIQNPDPAVYQLRDSKSSDKSVCLFTDFDSQTNVSQSKDSDVYITDKCVLDMRSMDFKSNSAVAWSNKSDFACANAFNNSIIPEDTFFPSPESSCDVKLVEKSFETDTNLNFQNLSVIGFRILLLKVAGFNLLMTLRLWSS
B4: 21852 (protein)
chain: B3 chain with I48L, G50S, S391G, S423T
B5: 22144 (protein)
chain: MALPVTALLLPLALLLHAARPMLPAPKNLVVSRITEDSARLSWTAPDAAFDSFPIRYIETLIWGEAIWLDVPGSERSYDLTGLKPGTEYAVVITGVKGGRFSSPLVASFTTGTGGGGSGGGGSGGGGSEFDIQMTQSPSSLSASVGDRVTITCRASQDISNYLNWYQQKPGKAVKLLIYYTSILHSGVPSRFSGSGSGTDYTLTISSLQPEDFATYFCQQGNTLPWTFGGGTKVEIKLEDLKNVFPPEVAVFEPSEAEISHTQKATLVCLATGFYPDHVELSWWVNGKEVHSGVCTDPQPLKEQPALNDSRYCLSSRLRVSATFWQNPRNHFRCQVQFYGLSENDEWTQDRAKPVTQIVSAEAWGRADCGFTSESYQQGVLSATILYEILLGKATLYAVLVSALVLMAMVKRKDSRGRAKRSGSGATNFSLLKQAGDVEENPGPTSMDWIWRILFLVGAATGAHSFEVQLVESGGGLVKPGGSLKLSCAASGFAFSIYDMSWVRQAPGKGLEWVAYISSGGGTTYYPDTVKGRFTISRDNAKNTLYLQMSSLRAEDTAMYYCARHSGYGSSYGVLFAYWGQGTLVTVSSTRIQNPDPAVYQLRDSKSSDKSVCLFTDFDSQTNVSQSKDSDVYITDKCVLDMRSMDFKSNSAVAWSNKSDFACANAFNNSIIPEDTFFPSPESSCDVKLVEKSFETDTNLNFQNLSVIGFRILLLKVAGFNLLMTLRLWSSRAKRSGSGVKQTLNFDLLKLAGDVESNPGPSRGHMTEYKPTVRLATRDDVPRAVRTLAAAFADYPATRHTVDPDRHIERVTELQELFLTRVGLDIGKVWVADDGAAVAVWTTPESVEAGAVFAEIGPRMAELSGSRLAAQQQMEGLLAPHRPKEPAWFLATVGVSPDHQGKGLGSAVVLPGVEAAERAGVPAFLETSAPRNLPFYERLGFTVTADVEVPEGPRTWCMTRKPGA

Experiments:
[1] = test system: JNG cells expressing the constructs
RAJI cells = assay: JNG assay, co-culture with RAJI cells; assay type: cell-based; settings: JNG cells expressing construct, co-culture with Raji
How it was run: (§1)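 Jurkat NFAT-GFP (JNG) cells stably transduced with SARs by lentivirus, with drug selection where the construct carried a resistance gene, then co-cultured with target cells at E:T ~1:2 for ~4–18 h. % GFP-positive cells measured by FACS against parental JNG; +/- to 5+ correspond to ~5–50% GFP-positive.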

Nalm6 cells = assay: JNG assay, co-culture with Nalm6 cells; assay type: cell-based; settings: co-culture with Nalm6
How it was run: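 Read-out: % GFP-positive cells by flow cytometry after ~4 to 18 h coculture of SAR-transduced JNG cells with targets (E:T about 1:2). Scores reflect GFP induction above parental JNG controls: +/- ≈5%, + ≈10%, up to 5+ ≈50%.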

U266 cells = assay: JNG NFAT-GFP induction on co-culture with U266; assay type: cell-based
L363 cells = assay: JNG assay, co-culture with L363 cells; assay type: cell-based; settings: co-culture with L363
How it was run: as §1

Raji-CD22-KO = assay: JNG NFAT-GFP assay, co-culture with Raji-CD22-KO cells; assay type: cell-based
L363-Luc cells = assay: L363 xenograft in NSG mice; settings: for disease control, L363 xenograft: 0.5 × 10^6 L363-Luc i.v., 3 days later 2 × 10^6 SAR-T i.v., compared to control T cells; for survival, L363 xenograft: mouse, in vivo, iv
[2] = JNG NFAT-GFP background GFP induction (tonic signaling)
THP-1 cells = assay: JNG NFAT-GFP induction on co-culture with THP-1

Molecule	cytotoxicity when exposed to antibody [1]	NFAT-GFP ASSAY: Raji (RAJI cells)	NFAT-GFP ASSAY: Nalm6 (Nalm6 cells)	NFAT-GFP ASSAY: U266 (U266 cells)	NFAT-GFP ASSAY: L363 (L363 cells)	NFAT-GFP ASSAY: Raji-CD22-KO (Raji-CD22-KO)	disease control, L363 xenograft (L363-Luc cells)	survival, L363 xenograft (L363-Luc cells)	background GFP induction (tonic signaling) [2]	GFP induction upon co-culture with THP-1 (THP-1 cells)
B1	showed cytotoxicity									
B2		2+ (refer to approximately 5%, 10%, 20%, 30%, 40% and 50% GFP positive cells)	+/- (refer to approximately 5%, 10%, 20%, 30%, 40% and 50% GFP positive cells)	2+ (refer to approximately 5%, 10%, 20%, 30%, 40% and 50% GFP positive cells)	+ (refer to approximately 5%, 10%, 20%, 30%, 40% and 50% GFP positive cells)	3+ (refer to approximately 5%, 10%, 20%, 30%, 40% and 50% GFP positive cells)				
B3							superior disease control	prolongation of survival	no background GFP induction	no GFP induction
B4							superior disease control	prolongation of survival	no background GFP induction	no GFP induction
B5		+ (refer to approximately 5%, 10%, 20%, 30%, 40% and 50% GFP positive cells)	+/- (refer to approximately 5%, 10%, 20%, 30%, 40% and 50% GFP positive cells)	3+ (refer to approximately 5%, 10%, 20%, 30%, 40% and 50% GFP positive cells)	+ (refer to approximately 5%, 10%, 20%, 30%, 40% and 50% GFP positive cells)	+/- (refer to approximately 5%, 10%, 20%, 30%, 40% and 50% GFP positive cells)				
